2 proteins from publication PMC7919409, “Crystal structures of adenylylated and unadenylylated PII protein GlnK from Corynebacterium glutamicum” (Acta Crystallographica. Section D, Structural Biology, 2021) can be followed below.

Series [1] deals with the molecule itself. Briefly: crystal structure; unGlnK, 2.2 Å, space group P4(3)2(1)2, one trimer per asymmetric unit; sitting drop, 292 K, 2.0 M ammonium sulfate, 5%(v/v) 2-propanol.
Series [2] concerns the molecule itself. Kind of series: crystal structure; adGlnK, 1.8 Å, space group P3(2), six chains per asymmetric unit; hanging drop, 292 K, MgCl2, CaCl2, MOPS/HEPES pH 7.1, MPD, PEG 1000, PEG 3350.

For orientation: stoichiometry N means the number of molecules, sites or subunits per partner or assembly.

B1: unmodified unadenylylated GlnK from Corynebacterium glutamicum (natural protein, C. glutamicum)
chain: SLHACRMKLITAIVKPFTLTDIKDALEQAGVQGMTVTETQGFGQQKGHTEVYRGAEYAVDFVPKVKIEVIISDAQAEEVINIIVETARTGKVGDGKVWMTNIEELVRVRTGERGEAAL
notes: not part of GlnK; PII protein GlnK, Corynebacterium glutamicum, UniProt Q79VF2; each subunit spans 112 residues; The His tag was cut off with thrombin; Homotrimer; also called unGlnK; UnGlnK; source: E. coli BL21(DE3), purified (HisTrap FF, thrombin cleavage of the His tag, Superdex 75 size-exclusion chromatography); not shown: His tag, N-terminal, cleaved
With B1, the “stoichiometry N” value in series [1] is 3.

B2: adenylylated GlnK from Corynebacterium glutamicum (natural protein, C. glutamicum)
chain: MKLITAIVKPFTLTDIKDALEQAGVQGMTVTETQGFGQQKGHTEVYRGAEYAVDFVPKVKIEVIISDAQAEEVINIIVETARTGKVGDGKVWMTNIEELVRVRTGERGEAAL
modifications: adenylylated Tyr51 (AMP moiety covalently linked to the hydroxyl group of Tyr51); almost fully adenylylated by mass spectrometry
notes: PII protein GlnK, Corynebacterium glutamicum, UniProt Q79VF2; untagged (stop codon inserted before the Xa-Strep stretch of the vector); Homotrimer; also called adGlnK; AdGlnK
Turning to B2, in series [2], the “stoichiometry N” value is 3.
